# Reference: paper PMC13431160
# Biological target: IRE1, ER stress sensor RNase, endogenous in HCT116 cells (human (endogenous in HCT116)) (UniProt O75460)
# Assay: co-IP; endogenous IRE1 immunoprecipitated from HCT116 WT lysate (anti-IRE1 clone B-12 cross-linked to protein G Dynabeads, 3 h at 4°C; 25 mM HEPES pH 7.3, 150 mM NaCl, 0.5% NP-40); cells treated with DMSO or TM 5 µg/mL 4 h; with or without RNase I and RNase T1 in the second wash; Western blot of IGF2BP3
# Sequence of UniProt O75460 (O75460 19-977): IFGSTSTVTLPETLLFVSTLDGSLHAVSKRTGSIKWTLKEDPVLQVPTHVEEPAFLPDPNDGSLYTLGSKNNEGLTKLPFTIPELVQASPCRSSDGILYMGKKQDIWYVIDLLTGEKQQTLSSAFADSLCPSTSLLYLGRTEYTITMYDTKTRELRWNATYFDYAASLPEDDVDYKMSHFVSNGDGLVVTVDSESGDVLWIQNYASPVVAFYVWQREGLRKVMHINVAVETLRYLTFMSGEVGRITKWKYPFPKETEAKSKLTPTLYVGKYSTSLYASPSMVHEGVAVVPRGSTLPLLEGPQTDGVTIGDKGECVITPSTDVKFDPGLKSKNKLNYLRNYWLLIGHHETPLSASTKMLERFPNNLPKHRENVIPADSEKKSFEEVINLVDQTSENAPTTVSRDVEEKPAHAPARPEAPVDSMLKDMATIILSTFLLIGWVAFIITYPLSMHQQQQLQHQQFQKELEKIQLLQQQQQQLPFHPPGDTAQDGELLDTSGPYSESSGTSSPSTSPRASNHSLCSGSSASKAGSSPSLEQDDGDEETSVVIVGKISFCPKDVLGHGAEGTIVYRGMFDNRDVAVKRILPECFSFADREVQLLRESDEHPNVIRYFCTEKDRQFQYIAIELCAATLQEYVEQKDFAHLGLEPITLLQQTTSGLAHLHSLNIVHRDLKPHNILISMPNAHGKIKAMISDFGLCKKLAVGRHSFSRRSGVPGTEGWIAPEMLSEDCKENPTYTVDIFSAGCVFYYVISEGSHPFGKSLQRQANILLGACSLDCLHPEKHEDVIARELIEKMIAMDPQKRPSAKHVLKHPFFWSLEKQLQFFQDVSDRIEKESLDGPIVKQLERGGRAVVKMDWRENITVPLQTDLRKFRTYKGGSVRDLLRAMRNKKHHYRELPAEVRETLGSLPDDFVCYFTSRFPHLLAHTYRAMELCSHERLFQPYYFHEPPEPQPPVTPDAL
substance,measurement,value
"IGF2BP3 (insulin-like growth factor 2 mRNA-binding protein 3), endogenous in HCT116 cells (from UniProt O00425 1-579) (natural protein)",fold change of the interaction after 4 h of ER stress against unstressed controls,1.6 fold
